Target: the molecule itself
Experiment: SEC; Superdex S200 10/300 GL, 4 °C; 100-μl injections of 1.25 mg/ml and 0.25 mg/ml CC3ext; in-line MALS gave no molecular weight because of elution in the void volume

B1: STIM1 CC3ext (residues 388-491) (domain or fragment, human, UniProt Q13586-1 388-491, looked up)
chain: NTLFGTFHVAHSSSLDDVDHKILTAKQALSEVTAALRERLHRWQQIEILCGFQIVNNPGIHSLVAALNIDPSWMGSTRPNPAHFIMTDDVDDMDEEIVSPLSMQ
notes: STIM1, human, residues 388-491 (CC3ext); Subcloned into pET-28a via NheI and XhoI; monomer 12.2 kDa on SDS-PAGE; also called recombinant CC3 fragment
  binding result: binds

Reference: article PMC4246082, “A Coiled-coil Clamp Controls Both Conformation and Clustering of Stromal Interaction Molecule 1 (STIM1)*” (The Journal of Biological Chemistry, 2014)
